125 sequences from the supplement of paper PMC9112550, “Optimization of the antimicrobial peptide Bac7 by deep mutational scanning” (BMC Biology, 2022) can be followed below.
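Also: peptides expressed intracellularly from a pBAD plasmid library in pooled LB shake-flask culture, induced with 0.3% L-arabinose, DNA abundance read by NGS, three biological replicates, DESeq2 with apeglm shrinkage.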

For this data set, the system named is Escherichia coli TOP10. Description: shrunken log2 fold change of peptide-encoding DNA abundance (4.5 h post-induction vs induction); higher = less antimicrobial activity (less host growth inhibition). The note with it: time post-induction: 4.5 h; library: site-saturation at positions 5, 18, 19, 20.
As for RRIRKRPPRLPRPRPRPGQKPRP, the “shrunken log2 fold change” value was 0.212.
For RRIRDRPPRLPRPRPRPSGDPRP, the “shrunken log2 fold change” value worked out at 0.163.
For the sequence RRIRCRPPRLPRPRPRPIRYPRP, the “shrunken log2 fold change” value was -1.42.
For the sequence RRIRPRPPRLPRPRPRPRSRPRP, the “shrunken log2 fold change” value was determined as 0.386.
The result for RRIRARPPRLPRPRPRPEVSPRP reads 0.431.
Take RRIRHRPPRLPRPRPRPMDLPRP: the “shrunken log2 fold change” value stood at 0.00707.
The value for RRIRWRPPRLPRPRPRPSLWPRP was 0.575; that for RRIRVRPPRLPRPRPRPGMPPRP was 0.0671.
Regarding RRIRVRPPRLPRPRPRPQIKPRP, the “shrunken log2 fold change” value is -0.455.
For the sequence RRIRARPPRLPRPRPRPYQQPRP, the “shrunken log2 fold change” value is -0.316.
The result for RRIRLRPPRLPRPRPRPWFKPRP reads -0.86.
With RRIRQRPPRLPRPRPRPPRVPRP, the “shrunken log2 fold change” value stood at 0.422.
In the case of RRIRMRPPRLPRPRPRPLYFPRP, the “shrunken log2 fold change” value was -0.302.
In the case of RRIRMRPPRLPRPRPRPLMQPRP, the “shrunken log2 fold change” value was found to be 0.29.
The result for RRIRGRPPRLPRPRPRPANHPRP reads 0.0248; that for RRIRLRPPRLPRPRPRPSWYPRP, -0.294; that for RRIRGRPPRLPRPRPRPRTSPRP, 0.763.
The result for RRIRQRPPRLPRPRPRPLSKPRP reads -0.194.
On to RRIRRRPPRLPRPRPRPCGAPRP, for which the “shrunken log2 fold change” value is 0.503.
As for RRIRKRPPRLPRPRPRPICFPRP, the “shrunken log2 fold change” value was 0.272.
With RRIRWRPPRLPRPRPRPQCLPRP, the “shrunken log2 fold change” value is -0.073.
For the sequence RRIRIRPPRLPRPRPRPFAWPRP, the “shrunken log2 fold change” value was 0.00684.
Take RRIRCRPPRLPRPRPRPFTYPRP: the “shrunken log2 fold change” value was -0.631.
For RRIRCRPPRLPRPRPRPQAAPRP, the “shrunken log2 fold change” value was determined as 0.225.
On to RRIRPRPPRLPRPRPRPGIRPRP, for which the “shrunken log2 fold change” value stood at 0.105.
The result for RRIRLRPPRLPRPRPRPTILPRP reads 0.0347.
Take RRIRNRPPRLPRPRPRPASAPRP: the “shrunken log2 fold change” value is 0.0499.
The result for RRIRQRPPRLPRPRPRPNKSPRP reads -0.202; that for RRIRHRPPRLPRPRPRPVQWPRP, 0.0118.
For the sequence RRIRQRPPRLPRPRPRPILRPRP, the “shrunken log2 fold change” value came to 0.034.
On to RRIRLRPPRLPRPRPRPTTAPRP, for which the “shrunken log2 fold change” value was 0.115.
In the case of RRIRGRPPRLPRPRPRPYQCPRP, the “shrunken log2 fold change” value is -0.0235.
As for RRIRMRPPRLPRPRPRPENKPRP, the “shrunken log2 fold change” value was found to be 1.48.
For RRIRPRPPRLPRPRPRPRWAPRP, the “shrunken log2 fold change” value came out at 0.394.
Turning to RRIRLRPPRLPRPRPRPMWMPRP, the “shrunken log2 fold change” value was -0.00116.
Consider RRIRARPPRLPRPRPRPCAEPRP, for which the “shrunken log2 fold change” value was 0.977.
With RRIRYRPPRLPRPRPRPTNWPRP, the “shrunken log2 fold change” value is -0.185.
RRIRRRPPRLPRPRPRPWWAPRP: the “shrunken log2 fold change” value came to 0.0813.
With RRIRKRPPRLPRPRPRPQMHPRP, the “shrunken log2 fold change” value is 0.0713.
Regarding RRIRQRPPRLPRPRPRPEGIPRP, the “shrunken log2 fold change” value was 0.0201.
On to RRIRWRPPRLPRPRPRPVGCPRP, for which the “shrunken log2 fold change” value stood at 0.575.
As to RRIRMRPPRLPRPRPRPPMAPRP, the “shrunken log2 fold change” value was found to be 0.841.
The value for RRIRHRPPRLPRPRPRPEMCPRP was -0.206.
With RRIRPRPPRLPRPRPRPLVQPRP, the “shrunken log2 fold change” value is -0.0898.
The value for RRIRERPPRLPRPRPRPEKMPRP was -0.421; that for RRIRNRPPRLPRPRPRPHWSPRP was -0.285.
Regarding RRIRCRPPRLPRPRPRPVLSPRP, the “shrunken log2 fold change” value was -0.192.
In the case of RRIRYRPPRLPRPRPRPGMQPRP, the “shrunken log2 fold change” value is -0.224.
With RRIRMRPPRLPRPRPRPNNVPRP, the “shrunken log2 fold change” value was -0.0591.
The value for RRIRGRPPRLPRPRPRPDDMPRP was 0.00936; that for RRIRGRPPRLPRPRPRPPQLPRP was 0.824; that for RRIRDRPPRLPRPRPRPFGCPRP was -0.109.
Turning to RRIRPRPPRLPRPRPRPVRAPRP, the “shrunken log2 fold change” value worked out at 0.622.
As to RRIRTRPPRLPRPRPRPKYIPRP, the “shrunken log2 fold change” value was -0.748.
As to RRIRYRPPRLPRPRPRPWCEPRP, the “shrunken log2 fold change” value was -0.468.
In the case of RRIRCRPPRLPRPRPRPLFYPRP, the “shrunken log2 fold change” value is -0.764.
Regarding RRIRTRPPRLPRPRPRPMLSPRP, the “shrunken log2 fold change” value is -0.41.
The result for RRIRIRPPRLPRPRPRPSYNPRP reads -1.15; that for RRIRIRPPRLPRPRPRPNDSPRP, -0.137; that for RRIRMRPPRLPRPRPRPIEFPRP, 0.103.
The value for RRIRNRPPRLPRPRPRPMDEPRP was 0.358.
Turning to RRIRWRPPRLPRPRPRPTNSPRP, the “shrunken log2 fold change” value is -0.39.
For the sequence RRIRDRPPRLPRPRPRPWPIPRP, the “shrunken log2 fold change” value is 0.00865.
Consider RRIRARPPRLPRPRPRPQCCPRP, for which the “shrunken log2 fold change” value came out at 0.219.
On to RRIRNRPPRLPRPRPRPAIFPRP, for which the “shrunken log2 fold change” value was -0.424.
On to RRIRMRPPRLPRPRPRPDICPRP, for which the “shrunken log2 fold change” value is -0.01.
The result for RRIRGRPPRLPRPRPRPCWRPRP reads 0.248; that for RRIRDRPPRLPRPRPRPCNAPRP, 0.0759; that for RRIRKRPPRLPRPRPRPGVWPRP, 0.786.
Consider RRIRCRPPRLPRPRPRPHPHPRP, for which the “shrunken log2 fold change” value was -0.0639.
RRIRFRPPRLPRPRPRPNRAPRP: the “shrunken log2 fold change” value was 0.091.
The value for RRIRIRPPRLPRPRPRPNRYPRP was -0.295; that for RRIRERPPRLPRPRPRPHWPPRP was 0.132; that for RRIRARPPRLPRPRPRPPKAPRP was 0.685.
As to RRIRNRPPRLPRPRPRPEHIPRP, the “shrunken log2 fold change” value is -0.313.
The result for RRIRERPPRLPRPRPRPEKSPRP reads -0.14; that for RRIRPRPPRLPRPRPRPAILPRP, -0.339.
For RRIRKRPPRLPRPRPRPNSQPRP, the “shrunken log2 fold change” value came to 0.27.
In the case of RRIRERPPRLPRPRPRPFLRPRP, the “shrunken log2 fold change” value was -0.401.
As for RRIRSRPPRLPRPRPRPRVDPRP, the “shrunken log2 fold change” value is 0.0568.
Regarding RRIRKRPPRLPRPRPRPVLYPRP, the “shrunken log2 fold change” value was -0.0796.
For the sequence RRIRRRPPRLPRPRPRPQPGPRP, the “shrunken log2 fold change” value was determined as 0.264.
Turning to RRIRSRPPRLPRPRPRPVMDPRP, the “shrunken log2 fold change” value was -0.496.
For RRIRPRPPRLPRPRPRPGCNPRP, the “shrunken log2 fold change” value is -0.124.
Turning to RRIRQRPPRLPRPRPRPVACPRP, the “shrunken log2 fold change” value was -0.0393.
In the case of RRIRSRPPRLPRPRPRPNDHPRP, the “shrunken log2 fold change” value was -0.322.
As to RRIRDRPPRLPRPRPRPQFMPRP, the “shrunken log2 fold change” value amounted to 1.04.
As to RRIRWRPPRLPRPRPRPFAMPRP, the “shrunken log2 fold change” value is -0.148.
The result for RRIRARPPRLPRPRPRPPTQPRP reads 0.718; that for RRIRIRPPRLPRPRPRPQELPRP, -0.169; that for RRIRGRPPRLPRPRPRPTHGPRP, 0.487.
Turning to RRIRGRPPRLPRPRPRPNIWPRP, the “shrunken log2 fold change” value was 0.373.
As for RRIRRRPPRLPRPRPRPPWFPRP, the “shrunken log2 fold change” value amounted to 0.479.
The result for RRIRCRPPRLPRPRPRPKITPRP reads -0.573; that for RRIRKRPPRLPRPRPRPTSDPRP, 0.492.
The result for RRIRTRPPRLPRPRPRPSYFPRP reads -0.85; that for RRIRSRPPRLPRPRPRPRYWPRP, 0.0181; that for RRIRSRPPRLPRPRPRPEMNPRP, 0.0588.
The result for RRIRLRPPRLPRPRPRPPQAPRP reads 0.872.
For the sequence RRIRDRPPRLPRPRPRPCFFPRP, the “shrunken log2 fold change” value stood at 0.304.
RRIRLRPPRLPRPRPRPWDWPRP: the “shrunken log2 fold change” value is 0.185.
On to RRIRSRPPRLPRPRPRPYMCPRP, for which the “shrunken log2 fold change” value was -0.903.
The value for RRIRDRPPRLPRPRPRPDKYPRP was -0.582; that for RRIRWRPPRLPRPRPRPLFHPRP was -0.0933; that for RRIRQRPPRLPRPRPRPKRGPRP was 0.38.
Turning to RRIRYRPPRLPRPRPRPSYNPRP, the “shrunken log2 fold change” value is -0.676.
The result for RRIRIRPPRLPRPRPRPINEPRP reads -0.516; that for RRIRVRPPRLPRPRPRPNVRPRP, -0.0431.
With RRIRNRPPRLPRPRPRPGAIPRP, the “shrunken log2 fold change” value worked out at 0.0755.
The result for RRIRHRPPRLPRPRPRPNTHPRP reads -0.856.
For the sequence RRIRCRPPRLPRPRPRPEKSPRP, the “shrunken log2 fold change” value turned out to be 0.0445.
As for RRIRRRPPRLPRPRPRPWIQPRP, the “shrunken log2 fold change” value worked out at 0.0321.
RRIRARPPRLPRPRPRPIWMPRP: the “shrunken log2 fold change” value was -0.00518.
RRIRWRPPRLPRPRPRPMTHPRP: the “shrunken log2 fold change” value is -0.0884.
On to RRIRQRPPRLPRPRPRPHYEPRP, for which the “shrunken log2 fold change” value is -0.167.
For the sequence RRIRRRPPRLPRPRPRPLATPRP, the “shrunken log2 fold change” value turned out to be 0.882.
Consider RRIRWRPPRLPRPRPRPEDEPRP, for which the “shrunken log2 fold change” value was determined as 0.0692.
As for RRIRMRPPRLPRPRPRPRINPRP, the “shrunken log2 fold change” value came to 0.19.
RRIRHRPPRLPRPRPRPEAIPRP: the “shrunken log2 fold change” value was -0.0296.
For RRIRDRPPRLPRPRPRPNISPRP, the “shrunken log2 fold change” value is -0.266.
As to RRIRERPPRLPRPRPRPCVNPRP, the “shrunken log2 fold change” value was -0.182.
RRIRWRPPRLPRPRPRPFWPPRP: the “shrunken log2 fold change” value stood at 0.161.
In the case of RRIRGRPPRLPRPRPRPAIGPRP, the “shrunken log2 fold change” value is 0.591.
Turning to RRIRGRPPRLPRPRPRPAFWPRP, the “shrunken log2 fold change” value came to 0.71.
RRIRPRPPRLPRPRPRPQDIPRP: the “shrunken log2 fold change” value was -0.0806.
